Experimental data: patent US20070134221A1 (published 2007)
Where a chain is given by its changes, count along the chain named. Names and notes keep the numbering of the source.

Assays:
Assay in all cases: cell-based or functional assay
[1] = target: envelope glycoprotein of virus isolate HIV-1 JFRL (HIV-1 JFRL)
[2] = target: envelope glycoprotein of virus isolate HIV-1 DJ258 (HIV-1 DJ258)
[3] = target: envelope glycoprotein of virus isolate HIV-1 NL4-3 (HIV-1 NL4-3)
[4] = target: envelope glycoprotein of virus isolate HIV-1 94ZW103 (HIV-1 94ZW103)
[5] = target: envelope glycoprotein of virus isolate HIV-1 UG270 (HIV-1 UG270)
[6] = target: envelope glycoprotein of virus isolate HIV-1 CM.235 (HIV-1 CM.235)
[7] = target: envelope glycoprotein of virus isolate HIV-1 BZ162 (HIV-1 BZ162)
[8] = target: envelope glycoprotein of virus isolate HIV-1 Case C 7/86 (HIV-1 Case C 7/86)

B1: C52F peptide (peptide)
peptide: NHTTWMEWDREINNYTSLIHSLIEESQNLQEKNEQELLELDKWASLWNWFNIKIK
[1]
  IC50 (nM), Human PBMC Infectivity Assays: 5 nM
[2]
  IC50 (nM), Human PBMC Infectivity Assays: 9 nM
[3]
  IC50 (nM), Human PBMC Infectivity Assays: 23 nM
[4]
  IC50 (nM), Human PBMC Infectivity Assays: 4 nM
[5]
  IC50 (nM), Human PBMC Infectivity Assays: 68 nM
[6]
  IC50 (nM), Human PBMC Infectivity Assays: 11 nM
[7]
  IC50 (nM), Human PBMC Infectivity Assays: 2 nM
[8]
  IC50 (nM), Human PBMC Infectivity Assays: 49 nM

B2: C52L peptide (peptide)
peptide: B1 peptide with I23F, N33A, L38F
[1]
  IC50 (nM), Human PBMC Infectivity Assays: 6 nM
[2]
  IC50 (nM), Human PBMC Infectivity Assays: 11 nM
[3]
  IC50 (nM), Human PBMC Infectivity Assays: 20 nM
[4]
  IC50 (nM), Human PBMC Infectivity Assays: 3 nM
[5]
  IC50 (nM), Human PBMC Infectivity Assays: 61 nM
[7]
  IC50 (nM), Human PBMC Infectivity Assays: 3 nM
[8]
  IC50 (nM), Human PBMC Infectivity Assays: 17 nM
